Laboratory results published in the supplement of paper PMC10724198.
± gives the standard deviation of the averaged measurements.

Tested on: Saccharomyces cerevisiae
Test: protein stability index of tFT-peptide fusion (C-terminal peptide) (PSI (0-1 scale)); higher = more stable (slower turnover)
Conditions: genetic background: wild type; temperature: 30 C
Experimental: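 Multiplexed protein stability (MPS) profiling in S. cerevisiae. Random 12-aa peptides (tFT-X12 library) are fused to the C-terminus of a sfGFP-mCherry tandem fluorescent timer, after mCherry and a GGGS linker. Cells are FACS-sorted into 8 mCherry/sfGFP bins and deep-sequenced. The protein stability index (PSI) is the read-weighted bin average, scaled from 0 (unstable) to 1 (stable). Only peptides with >10 reads are reported; cells were grown at 30 °C in SC-His with glucose.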
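Also: PSI is a weighted mean of sequencing reads over stability bins, variants kept only with over 10 reads, mCherry proximal and sfGFP distal, peptide attached via GGGS linker.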

Sequence | protein stability index
FGGRGRVASRLV | 0.763 ± 0.086
FGIDVRPRPSQS | 0.698 ± 0.12
FGRWVVVYRGLD | 0.625 ± 0.037
FGSPFPASRFTT | 0.752 ± 0.082
FGVDGVGVVVGY | 0.669 ± 0.0086
FGVGGRWVVPGA | 0.733 ± 0.016
FGVRTLTFISRT | 0.637 ± 0.0081
FGWFDIKDSTNS | 0.7177 ± 0.0048
FHARVEKQFMVM | 0.489 ± 0.031
FHMPRSSPFLTG | 0.74 ± 0.054
FIGWFSLMSCSV | 0.604 ± 0.026
FISPSPLPPYSP | 0.665 ± 0.059
FITLHGLLSRPC | 0.626 ± 0.077
FITRPYKNIKNR | 0.702 ± 0.031
FKRPQFFSAFFP | 0.612 ± 0.011
FKVARGVHCGEG | 0.6662 ± 0.0037
FLFCSYHSPLSF | 0.7 ± 0.036
FLFLSFLSSSPS | 0.745 ± 0.0088
FLFLYIPFSPPR | 0.62 ± 0.02
FLFSDLVCSSVF | 0.704 ± 0.027
FLGAELRRLGSL | 0.703 ± 0.071
FLHLGGEWGVEG | 0.683 ± 0.041
FLHLTSSTPLSR | 0.794 ± 0.17
FLHPPPSALVLP | 0.726 ± 0.03
FLHSERTLCFIS | 0.537 ± 0.052

Sequence | protein stability index
FLLFLSSAPPAT | 0.655 ± 0.0084
FLLHHVSRSPSA | 0.692 ± 0.014
FLLPRFDSAFPL | 0.684 ± 0.031
FLLVLPLSGLIV | 0.528 ± 0.016
FLPHPSPDPLPP | 0.588 ± 0.12
FLPPYSLPTPPF | 0.699 ± 0.03
FLRLGLLQTFSP | 0.677 ± 0.04
FLRPALACDVYN | 0.737 ± 0.05
FLSLSLFPFSSL | 0.698 ± 0.024
FLSRLGLVGWWG | 0.643 ± 0.036
FLSTGIGKGVFL | 0.694 ± 0.035
FLTAGRLYDGRV | 0.6489 ± 0.0032
FLVEPSGRSATW | 0.741 ± 0.16
FLWAPRWFCVGH | 0.651 ± 0.041
FMFELSPVDEWA | 0.791 ± 0.043
FMVIRVGGWGVL | 0.646 ± 0.094
FPAPFLRVSPLW | 0.644 ± 0.048
FPASLDAVTRPP | 0.722 ± 0.011
FPASPQAPPPLP | 0.65377 ± 0.00019
FPATLPPSYSLI | 0.643 ± 0.017
FPCRSPKLYPPL | 0.655 ± 0.011
FPDTRSLPLPPG | 0.687 ± 0.011
FPFSDFVFLFCF | 0.57 ± 0.011
FPLPLCHSPAPP | 0.606 ± 0.027
FPLPPLPPVPPP | 0.632 ± 0.059

Sequence | protein stability index
FPPPLPLSPPPP | 0.746 ± 0.085
FPRLYHPNIKLP | 0.716 ± 0.13
FPVTAPPRPFLF | 0.639 ± 0.014
FPWFYPNHLEVP | 0.698 ± 0.063
FQAPGGEIMSPS | 0.647 ± 0.012
FQPPARATFLPV | 0.668 ± 0.031
FRCGLDFRWYVI | 0.62 ± 0.012
FRCSLLGGYTLE | 0.737 ± 0.092
FRFSSTGRSFVS | 0.6917 ± 0.0029
FRGPRSFRGVVW | 0.757 ± 0.08
FRICSLTLSLSI | 0.5517 ± 0.0048
FRISWLRVKGRG | 0.676 ± 0.035
FRKTDYMVHNGI | 0.664 ± 0.015
FRLNSYQNGSRV | 0.682 ± 0.043
FRLQQGCSRHVG | 0.671 ± 0.015
FRPCLRCLVSPF | 0.6358 ± 0.0063
FRPLWLPSGSAC | 0.611 ± 0.019
FRRCLCSLSLTS | 0.631 ± 0.012
FRRLCRPVWSAR | 0.6749 ± 0.0038
FRYLAVSPFGGL | 0.749 ± 0.057
FSAPLPPARSPS | 0.798 ± 0.11
FSAPPPPSPPLS | 0.721 ± 0.053
FSASSSLSPFPL | 0.707 ± 0.052
FSFCQLSLASFP | 0.571 ± 0.01
FSFPAPRGLLWV | 0.547 ± 0.027

Sequence | protein stability index
FSGSSCSSPFCF | 0.632 ± 0.033
FSKTYTIMLITI | 0.538 ± 0.0077
FSLLCGPGLRGF | 0.72 ± 0.02
FSPGYPMAFSLR | 0.74 ± 0.0075
FSPLLQSPLLAP | 0.692 ± 0.0089
FSQLVQPSSFTS | 0.7176 ± 0.004
FSRGRAVRVRRT | 0.728 ± 0.21
FSSLFLSLLCPP | 0.727 ± 0.073
FSSYDLISFVLV | 0.538 ± 0.0099
FTISHWFSGDGE | 0.705 ± 0.015
FTPLFSPVLLLP | 0.72 ± 0.12
FTSPNGVRVCFH | 0.843 ± 0.02
FVAGVGPLWGRR | 0.661 ± 0.031
FVALCHCVRISR | 0.697 ± 0.013
FVGCVNIFLSWG | 0.51 ± 0.019
FVGSSFELRLPG | 0.692 ± 0.057
FVGWVAMGGSVV | 0.731 ± 0.024
FVLPSPRPPSMT | 0.704 ± 0.0078
FVVGTFGHRRGR | 0.694 ± 0.019
FWEGETVPTSEP | 0.788 ± 0.045
FWEIRSGSNHRH | 0.713 ± 0.028
FWGVAPSDRVSK | 0.697 ± 0.0078
FWVGGGVFGVRV | 0.747 ± 0.015
FYAGELSCRHQT | 0.694 ± 0.025
FYGLPSVVCGWF | 0.671 ± 0.025

Sequence | protein stability index
GAFKSRAGGGSG | 0.621 ± 0.093
GAGGARRLAVGQ | 0.655 ± 0.014
GAGGVWVRAWGP | 0.768 ± 0.095
GAGLLRLWEVGG | 0.733 ± 0.049
GAIRLSLMLLPQ | 0.686 ± 0.042
GALVGFPAFFLL | 0.654 ± 0.011
GALVLWTGCTYS | 0.726 ± 0.0033
GAPTRSYGERKR | 0.647 ± 0.0097
GARRLGLMVFDG | 0.669 ± 0.066
GARRSAVPWSPK | 0.723 ± 0.018
GASGGRIGEGEE | 0.679 ± 0.011
GASSLGVNGGSV | 0.6954 ± 0.0021
GAVAAVPRGGIL | 0.715 ± 0.018
GAVHLNSLPVTK | 0.6983 ± 0.0044
GAVSRRALPRRP | 0.709 ± 0.016
GAVSVVFGWTDV | 0.672 ± 0.021
GAVWAWRRLKGG | 0.619 ± 0.035
GCASAAMFPEEL | 0.691 ± 0.053
GCCGGRLWEGGG | 0.707 ± 0.013
GCCWGCRIGEAV | 0.6557 ± 0.0052
GCEGGGRVGSWT | 0.742 ± 0.028
GCEGGWLGEGIG | 0.593 ± 0.014
GCFLSERLFTPL | 0.7304 ± 0.00085
GCGAMGWAVPAA | 0.655 ± 0.041
GCGEGVGASVGR | 0.641 ± 0.011

Sequence | protein stability index
GCGGLCQGGGGW | 0.704 ± 0.084
GCGGVEAVGGVC | 0.586 ± 0.025
GCLLVVAGGGRG | 0.698 ± 0.069
GCLPGGKRESRG | 0.647 ± 0.11
GCLRLCYQHWSP | 0.6764 ± 0.005
GCRDQKLGVGVD | 0.759 ± 0.064
GCRGEGGWVGRG | 0.6955 ± 0.0029
GCRGWRSVGRGR | 0.644 ± 0.025
GCRLVEGAVRLE | 0.686 ± 0.048
GCRSQRSDSLMM | 0.644 ± 0.028
GCSLWAVRTWGL | 0.699 ± 0.01
GCSPTLMVSFIA | 0.572 ± 0.037
GCVGGGWRHVGV | 0.725 ± 0.059
GCVGGWCGGSGA | 0.698 ± 0.083
GCWAGLGAPGVS | 0.71 ± 0.027
GCWGAGESTLGG | 0.724 ± 0.0084
GCWGEWGWVGRG | 0.696 ± 0.035
GCWVNFLLTHFF | 0.527 ± 0.024
GDASLSSLHIRL | 0.642 ± 0.02
GDCIDCFKLVGI | 0.711 ± 0.035
GDEDVSWLVFMG | 0.762 ± 0.024
